# Results as given in patent publication US20210292393A1 (published 2021).
# Changes are numbered by the printed parent chain.
# B1: antibody 421 (antibody, V domains shown)
# VH: QVQLVESGGGVVQPGRSLRLSCAASGFTFSTYAMHWVRQAPGKGLEWVAVISYDGSNKYYADSVKGRFTISRDNSKNTLYLQMNSLRAEDTAVYYCARGYGSGSYYPLYLYWGQGTLVTVSS
# VL: not shown
# B2: antibody 412 (antibody, V domains shown)
# VH: QVQLVQSGAEVKKPGASVKVSCKASGYTFTSYGISWVRQAPGQGLEWMGWISAYNGNTNYAQKLQGRVTMTTDTSTSTAYMELRSLRSDDTAVYYCARVTVEAIFGVVILPLKNWFDPWGQGTLVTVSS
# VL: QSVLTQPPSVSGAPGQRVTISCTGSSSNIGAGYDVHWYQQLPGTAPKLLIYGNSNRPSGVPDRFSGSKSGTSASLAITGLQAEDEADYYCQSYDSSLTLYVFGTGTKVTVL
# B3: antibody 407 (antibody, V domains shown)
# VH: QVQLVESGGGVVQPGRSLRLSCAASGFTFSSYGMHWVRQAPGKGLEWVAVISYDGSNKYYADSVKGRFTISRDNSKNTLYLQMNSLRAEDTAVYYCAKCGWDYDFWVGQGYGMDVWGQGTTVTVSS
# VL: not shown
# B4: antibody 431 (antibody, V domains shown)
# VH: QVQLVESGGGVVQPGRSLRLSCAASGFTFSSYAMHWVRQAPGKGLEWLAVISYDGSNKYYADSVKGRFTISRDNSKNTLYLQMNSLRAEDTAVYYCARSFRGGYYYGMDVWGQGTTVTVSS
# VL: DIQLTQSPSFLSASVGDRVTITCRASQGISSYLAWYQQKPGKAPKLLIYAASTLQSGVPSRFSGSGSGTEFTLTISSLQPEDFATYYCQQLNSYPLFTFGPGTKVDIK
# B5: antibody 423 (antibody, V domains shown)
# VH: EVQLVESGGGLIQPGGSLRISCAASGFTVRNNHMSWVRQAPGKGLEWVSVFYRGGTTYYADSVKGRFTISRDDSKNTVDLQMNSLRGEDTAVYYCARGLSVAASGYFDCWGQGTLVTVSS
# VL: DIQMTQSPSSVSASVGDTVTITCRANQGISSWLAWYQQVPGKAPELLIYATSTLQSGVPSRFSGSGSGTDFTLTISSLQPEDFATYYCQQANSFPFTFGPGTKVDIK
# B6: antibody 409 (antibody, V domains shown)
# VH: QVTLRESGPALVKPTQTLTLTCTFSGFSLSTSGMCVSWIRQPPGKALEWLALIDWDDDKYYSTSLKTRLTISKDTSKNQVVLTMTNMDPVDTATYYCARTTYYYVSGRRAEFDPWGQGTLVTVSS
# VL: NFMLTQPHSVSESPGKTVTISCTGSSGSIASNYVQWYQQRPGSAPTTVIYEDNQRPSGVPDRFSGSIDSSSNSASLTISGLKTEDEADYYCQSYDSSNQGVFGGGTKLTVL
# B7: antibody 405 (antibody, V domains shown)
# VH: not shown
# VL: QSALTQPRSVSGSPGQSVTISCTGTSSDVGGYNYVSWYQQHPGKAPKLMIYDVSKRPSGVPDRFSGSKSGNTASLTISGLQAEDEADYYCCSYAGSYNVVFGGGTKLTVL
# B8: antibody 422 (antibody, V domains shown)
# VH: QVQLVQSGSELKKPGASVKVSCKASGYTFTSYAMNWVRQAPGQGLEWMGWINTNTGNPTYAQGFTGRFVFSLDTSVSTTYLQISSLKAEDTAVYYCARVIGVVTYYYYGMDVWGQGTTVTVSS
# VL: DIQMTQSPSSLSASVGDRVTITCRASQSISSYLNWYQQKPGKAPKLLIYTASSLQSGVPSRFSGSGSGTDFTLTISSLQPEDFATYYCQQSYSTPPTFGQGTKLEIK
# B9: antibody 446 (antibody, V domains shown)
# VH: QVQLVESGGGVVQPGRSLRLSCAASGFTFSSYAMHWVRQAPGKGLEWVAVISYDGSNKYYADSVKGRFTISRDNSKNTLYLQMNSLRAEDTAVYYCARPNSGSYFGYFQHWGQGTLVTVSS
# VL: QSVLTQPPSVSGAPGQRVTISCTGSSSNIGAGYDVHWYQQLPGTAPKLLIYGNSNRPSGVPDRFSGSKSGTSASLAITGLQAEDEADYYCQSYDSSLSGFYVFGTGTKVTVL
# B10: antibody 434 (antibody, V domains shown)
# VH: QVQLVQSGAEVKKPGASVQVSCKASGYTFSDYYIFWVRQAPGQGLEWMGCINPKSGGAIYAQRFQGRVTMTRDTSFNTAYMEMNRLGSDDTAVYYCVTRGPPDIAASGFAWHLDVWGQGTTVTVSS
# VL: DIVMTQSPLSLPVTPGEPASISCRSSQSLLSSNGYNYLEWYLQKPGQSPQLLMYLGSNRASGVPDRFSGSGSGTDFTLKINRVEAEDVGVYYCMQALQTPLTFGGGTKVEIK
# B11: antibody 454 (antibody, V domains shown)
# VH: QVQLVQSGAEVKKPGASLKVSCKASGYIFTGYYMHWVRQAPGQGLEWMGWISPNSGGTKYAQKFQGRVTMTRDTSISTAYMELSRLRSDDSAVYYCAREPYYDILTGYYTPRRYLDYWGQGTLVTVSS
# VL: QSALTQPASVSGSPGQSITISCTGTSSDVGDYNYVSWYQQHPGKVPKLMIYDVSHRPSGVTNRFSGSKSGNTASLTISGLRAEDEADYYCSSYTSSSTYVFGTGTKVTVL
# B12: antibody 474 (antibody, V domains shown)
# VH: EVQLVESGGGLVQPGGSLRLSCAASGFTFSSYWMHWVRQAPGKGLVWVSRINSDGSSTSYADSVKGRFTISRDNAKNTLYRQMNSLRAEDTAVYYCALGPLDIVGSYYYYGMDVWGQGTTVTVSS
# VL: NFMLTQPHSVSESPGKTVTISCTGSSGSIASNYVQWYQQRPGSAPTTVIYEDNQRPSGVPDRFSGSIDSSSNSASLTISGLKTEDEADYYCQSYDSSNQDVVFGGGTKLTVL
# B13: antibody 444 (antibody, V domains shown)
# VH: QVQLVESGGGLVKPGGSLRLSCAASGFTFSDYYMSWIRQAPGKGLEWVSYISSSGSTIYYADSVKGRFTISRDNAKNSLYLQMNSLRAEDTAVYYCARERKVVVAATRNYYYYYGMDVWGQGTTVTVSS
# VL: SYELTQPPSVSVSPGQTARITCSGDALPKQYAYWYQQKPGQAPVLVIYKDSERPSGIPERFSGSSSGTTVTLTISGVQAEDEADYYCQSADSSTWVFGGGTKLTVL
# B14: antibody 439 (antibody, V domains shown)
# VH: B4 VH with L48V, S99P, F100P, Y104S, G107P, M108F, V110P, T116L
# VL: not shown
# B15: antibody 452 (antibody, V domains shown)
# VH: QVQLVESGGGLVKPGGSLRLSCAASGFTFSDYYLSWIRQAPGKGLEWVSYISSSGSNIYYADSVKGRFTISRDNAKNSLYLQMNSLRADDTAVFYCARAGRYCSGGSCRVEYFQHWGQGTLVTVSS
# VL: SYELTQPPSVSVSPGQTARITCSGDALPKQYAYWYQQKPGQAPVLVIYKDNERPSGIPERFSGSSSGTTATLTISGVQAEDEADYYCQSADSSGTVVFGGGTKLTVL
# B16: antibody 470 (antibody, V domains shown)
# VH: not shown
# VL: B7 VL with R8A, V18I, G31S, Y34L, D52E, P61S, D62N, Y97S, N98T, V99L
# B17: antibody 443 (antibody, V domains shown)
# VH: QMRLEESGPGLVKPSETLSLTCTVAGGSITSSDYFWGWLRQSPGKGLEWIASTYHGGSIQYHPALKSRVTISVDASKNQISLRLSSVTAADTAVYYCARDRGDDGPMGTYYFDHWGQGALVTVSS
# VL: QSVLTQPPSVSGAPGQSVTISCAGSSSNIGAGHDVHWYQQIPGTAPKLLICGNTNRPSGVPERFSGSRSGTSASLAITGLQAEDEAVYYCQSYDPSHVFFGTGTKLTVL
# Biological target: SARS-CoV spike protein (full length spike, trimeric, conjugated to beads) (SARS-CoV, UniProt P59594 14-1190)
row,Binder,median fluorescence fold over isotype control [fold over isotype control]
1,B1,1.19
2,B2,1.09
3,B3,1.07
4,B4,49.9
5,B5,1.23
6,B6,1.03
7,B7,80.9
8,B8,1.19

# Biological target: SARS-CoV spike protein (full length, trimeric) (SARS-CoV, UniProt P59594 14-1190)
row,Binder,fold over isotype control (median fluorescence) [fold over isotype]
1,B9,6.58
2,B10,1.36
3,B11,1.1
4,B12,1.1
5,B13,1
6,B14,1.23
7,B15,1.09
8,B16,1.09
9,B17,1.03
